For assay [1], the target named is SARS-CoV-2 WA-1 S-2P spike protein (SARS-CoV-2), P0DTC2. Particulars: remark: other sources report otherwise.
Assay [2] concerns the target T1, SARS-CoV-2 Omicron BA.1 spike protein (on pseudotyped lentivirus) (SARS-CoV-2), P0DTC2.
Assay [3] addresses T1, SARS-CoV-2 Omicron BA.1 spike protein …. As to the kind of experiment: cell-based or functional assay.

Like-named read-outs stand apart in the source and are kept apart here. A value given as a limit tells only on which side of the number the result lay.

B1: A19-46.1 (antibody)
chain 1: QVQLVESGGGVVQPGRSLRLSCAASGFTLSSYGMHWVRQAPGKGLEWVAVISYDGSNKYYVDSVKGRFTISRDNSKNTLYLQMNSLRAEDTAVYYCARGWAYWELLPDYYYGMDVWGQGTTVTVSS
chain 2: QTVVTQEPSFSVSPGGTVTLTCGLSSGSVSTAYFPSWYQQTPGQAPRTLIYGTNTRSSGVPDRFSGSILGNKAALTITGAQADDESDYYCVLYMGRGIVVFGGGTKLTVL
For B1, the % inhibition of ACE2 binding in assay [1] amounted to 98%.

B2: B2-269.1 (antibody, V domains shown)
VH: EVQLVESGGGLVQPGGSLRLSCAASGITVSSNYMSWVRQPPGKGLDWVSLIFSGGSTYYADSVKGRFTISRDNSKNTLYLQMNSLRAEDTAVYYCARVGVAVAGTDYDIWGQGTMVTVSS
VL: DIQMTQSPSSLSASVGDRVTITCQASQDINKYLNWYQQKPGKAPKLLIYDASNLETGVPSRFSGSGSGTDFTFTISSLQPEDIATYYCLHYENLPLSFGGGTKVEIK
Turning to B2, in assay [2], the neutralization IC50 was 0.01 µg/mL and the neutralization IC80 is 0.02 µg/mL. In assay [3], this molecule registered a neutralization IC50 below 0.1 µg/mL.

These data come from patent US20260209317A1.
